Reference: the RNAGym collection of RNA variant scans (doi:10.1093/molbev/msab373)

B1: Azoarcus group I ribozyme (parent)
chain: GUGCCUUGCGCCGGGAAACCACGCAAGGGAUGGUGUCAAAUUCGGCGAAACCUAAGCGCCCGCCCGGGCGUAUGGCAACGCCGAGCCAAGCUUCGGCGCCUGCGCCGAUGAAGGUGUAGAGACUAGACGGCACCCACCUAAGGCAAACGCUAUGGUGAAGGCAUAGUCCAGGGAGUGGCGAAAGUCACACAAACCGG

Variants of: B1
Assay: reverse-splicing fitness (ratio to wild type); higher = more active; in vitro selection; Mg2+ level not given
How it was run: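 An in vitro group I ribozyme library with randomized positions was T7-transcribed and gel-purified. In triplicate, 10 pmol RNA in EPPS pH 7.5 was reacted with 50 pmoles of a 30-nt RNA substrate for 1 h at 37 °C across several added MgCl2 levels (1–48 mM), then stopped with EDTA. Products were reverse transcribed from a substrate-complementary primer, PCR-amplified and sequenced (HiSeq 4000). Fitness is a variant's read proportion after selection over that before, normalised to wild type.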

| Variant | reverse-splicing fitness |
| --- | --- |
| GUGCCUUGCGCCGGGAAACCACGCAAGGGAUGGUGUCAAAUUCGGCGAAACCUAAGCGCCCGCCCGGGCGUAUGGCAACGCGGAGCCAAGCUUCGGCGCCUGCGCCGAUGUAGGUGUAGCGACUAGACGGCACCCACCUAAGGCUAACGAUAUGGUGAAGGCAUAGUCUAGGGAGUGGCGAAAGUCACACAAACCGG | 0.00991 |
| GUGCCUUGCGCCGGGAAACCACGCAAGGGAUGGUGUCAAAUUCGGCGAAACCUAAGCGCCCGCCCGGGCGUAUGGCAACGCGGAGCCAAGCUUCGGCGCCUGCGCCGAUGUAGGUGUAGCGACUAGACGGCACCCACCUAAGGCUAACGGUAUGGUGAAGGCAUAGUCUAGGGAGGGGCGAAAGUCACACAAACCGG | 0.00561 |
| GUGCCUUGCGCCGGGAAACCACGCAAGGGAUGGUGUCAAAUUCGGCGAAACCUAAGCGCCCGCCCGGGCGUAUGGCAACGCGGAGCCAAGCUUCGGCGCCUGCGCCGAUGUAGGUGUAGCGACUAGACGGCACCCACCUAAGGCUAACGGUAUGGUGAAGGCAUAGUCUAGGGAGAGGCGAAAGUCACACAAACCGG | 0.0083 |
| GUGCCUUGCGCCGGGAAACCACGCAAGGGAUGGUGUCAAAUUCGGCGAAACCUAAGCGCCCGCCCGGGCGUAUGGCAACGCGGAGCCAAGCUUCGGCGCCUGCGCCGAUGUAGGUGUAGCGACUAGACGGCACCCACCUAAGGCUAACGGUAUGGUGAAGGCAUAGUCUAGGGAGCGGCGAAAGUCACACAAACCGG | 0.0123 |
| GUGCCUUGCGCCGGGAAACCACGCAAGGGAUGGUGUCAAAUUCGGCGAAACCUAAGCGCCCGCCCGGGCGUAUGGCAACGCGGAGCCAAGCUUCGGCGCCUGCGCCGAUGUAGGUGUAGCGACUAGACGGCACCCACCUAAGGCUAACGGUAUGGUGAAGGCAUAGUCUAGGGAGUGGCGAAAGUCACACAAACCGG | 0.00954 |
| GUGCCUUGCGCCGGGAAACCACGCAAGGGAUGGUGUCAAAUUCGGCGAAACCUAAGCGCCCGCCCGGGCGUAUGGCAACGCGGAGCCAAGCUUCGGCGCCUGCGCCGAUGUAGGUGUAGCGACUAGACGGCACCCACCUAAGGCUAACGGUAUGGUGAAGGCAUAGUCAAGGGAGUGGCGAAAGUCACACAAACCGG | 0.00911 |
| GUGCCUUGCGCCGGGAAACCACGCAAGGGAUGGUGUCAAAUUCGGCGAAACCUAAGCGCCCGCCCGGGCGUAUGGCAACGCGGAGCCAAGCUUCGGCGCCUGCGCCGAUGUAGGUGUAGCGACUAGACGGCACCCACCUAAGGCUAACGGUAUGGUGAAGGCAUAGUCGAGGGAGUGGCGAAAGUCACACAAACCGG | 0.00772 |
| GUGCCUUGCGCCGGGAAACCACGCAAGGGAUGGUGUCAAAUUCGGCGAAACCUAAGCGCCCGCCCGGGCGUAUGGCAACGCGGAGCCAAGCUUCGGCGCCUGCGCCGAUGUAGGUGUAGCGACUAGACGGCACCCACCUAAGGCUAACGAUAUGGUGAAGGCAUAGUCCAGGGAGCGGCGAAAGUCACACAAACCGG | 0.018 |
| GUGCCUUGCGCCGGGAAACCACGCAAGGGAUGGUGUCAAAUUCGGCGAAACCUAAGCGCCCGCCCGGGCGUAUGGCAACGCGGAGCCAAGCUUCGGCGCCUGCGCCGAUGUAGGUGUAGCGACUAGACGGCACCCACCUAAGGCUAACGAUAUGGUGAAGGCAUAGUCCAGGGAGGGGCGAAAGUCACACAAACCGG | 0.00705 |
| GUGCCUUGCGCCGGGAAACCACGCAAGGGAUGGUGUCAAAUUCGGCGAAACCUAAGCGCCCGCCCGGGCGUAUGGCAACGCGGAGCCAAGCUUCGGCGCCUGCGCCGAUGUAGGUGUAGCGACUAGACGGCACCCACCUAAGGCUAACGAUAUGGUGAAGGCAUAGUCCAGGGAGAGGCGAAAGUCACACAAACCGG | 0.0101 |
| GUGCCUUGCGCCGGGAAACCACGCAAGGGAUGGUGUCAAAUUCGGCGAAACCUAAGCGCCCGCCCGGGCGUAUGGCAACGCGGAGCCAAGCUUCGGCGCCUGCGCCGAUGUAGGUGUAGCGACUAGACGGCACCCACCUAAGGCUAACGUUAUGGUGAAGGCAUAGUCAAGGGAGAGGCGAAAGUCACACAAACCGG | 0.0178 |
| GUGCCUUGCGCCGGGAAACCACGCAAGGGAUGGUGUCAAAUUCGGCGAAACCUAAGCGCCCGCCCGGGCGUAUGGCAACGCGGAGCCAAGCUUCGGCGCCUGCGCCGAUGUAGGUGUAGCGACUAGACGGCACCCACCUAAGGCUAACGUUAUGGUGAAGGCAUAGUCAAGGGAGCGGCGAAAGUCACACAAACCGG | 0.0135 |
| GUGCCUUGCGCCGGGAAACCACGCAAGGGAUGGUGUCAAAUUCGGCGAAACCUAAGCGCCCGCCCGGGCGUAUGGCAACGCGGAGCCAAGCUUCGGCGCCUGCGCCGAUGUAGGUGUAGCGACUAGACGGCACCCACCUAAGGCUAACGGUAUGGUGAAGGCAUAGUCAAGGGAGCGGCGAAAGUCACACAAACCGG | 0.0107 |
| GUGCCUUGCGCCGGGAAACCACGCAAGGGAUGGUGUCAAAUUCGGCGAAACCUAAGCGCCCGCCCGGGCGUAUGGCAACGCGGAGCCAAGCUUCGGCGCCUGCGCCGAUGUAGGUGUAGCGACUAGACGGCACCCACCUAAGGCUAACGGUAUGGUGAAGGCAUAGUCAAGGGAGGGGCGAAAGUCACACAAACCGG | 0.00704 |
| GUGCCUUGCGCCGGGAAACCACGCAAGGGAUGGUGUCAAAUUCGGCGAAACCUAAGCGCCCGCCCGGGCGUAUGGCAACGCGGAGCCAAGCUUCGGCGCCUGCGCCGAUGUAGGUGUAGCGACUAGACGGCACCCACCUAAGGCUAACGGUAUGGUGAAGGCAUAGUCAAGGGAGAGGCGAAAGUCACACAAACCGG | 0.0121 |
| GUGCCUUGCGCCGGGAAACCACGCAAGGGAUGGUGUCAAAUUCGGCGAAACCUAAGCGCCCGCCCGGGCGUAUGGCAACGCGGAGCCAAGCUUCGGCGCCUGCGCCGAUGUAGGUGUAGCGACUAGACGGCACCCACCUAAGGCUAACGGUAUGGUGAAGGCAUAGUCGAGGGAGAGGCGAAAGUCACACAAACCGG | 0.00838 |
| GUGCCUUGCGCCGGGAAACCACGCAAGGGAUGGUGUCAAAUUCGGCGAAACCUAAGCGCCCGCCCGGGCGUAUGGCAACGCGGAGCCAAGCUUCGGCGCCUGCGCCGAUGUAGGUGUAGCGACUAGACGGCACCCACCUAAGGCUAACGGUAUGGUGAAGGCAUAGUCGAGGGAGGGGCGAAAGUCACACAAACCGG | 0.00592 |
| GUGCCUUGCGCCGGGAAACCACGCAAGGGAUGGUGUCAAAUUCGGCGAAACCUAAGCGCCCGCCCGGGCGUAUGGCAACGCGGAGCCAAGCUUCGGCGCCUGCGCCGAUGUAGGUGUAGCGACUAGACGGCACCCACCUAAGGCUAACGGUAUGGUGAAGGCAUAGUCGAGGGAGCGGCGAAAGUCACACAAACCGG | 0.007 |
| GUGCCUUGCGCCGGGAAACCACGCAAGGGAUGGUGUCAAAUUCGGCGAAACCUAAGCGCCCGCCCGGGCGUAUGGCAACGCGGAGCCAAGCUUCGGCGCCUGCGCCGAUGUAGGUGUAGCGACUAGACGGCACCCACCUAAGGCUAACGAUAUGGUGAAGGCAUAGUCUAGGGAGCGGCGAAAGUCACACAAACCGG | 0.0141 |
| GUGCCUUGCGCCGGGAAACCACGCAAGGGAUGGUGUCAAAUUCGGCGAAACCUAAGCGCCCGCCCGGGCGUAUGGCAACGCGGAGCCAAGCUUCGGCGCCUGCGCCGAUGUAGGUGUAGCGACUAGACGGCACCCACCUAAGGCUAACGAUAUGGUGAAGGCAUAGUCUAGGGAGAGGCGAAAGUCACACAAACCGG | 0.0146 |
| GUGCCUUGCGCCGGGAAACCACGCAAGGGAUGGUGUCAAAUUCGGCGAAACCUAAGCGCCCGCCCGGGCGUAUGGCAACGCGGAGCCAAGCUUCGGCGCCUGCGCCGAUGUAGGUGUAGCGACUAGACGGCACCCACCUAAGGCUAACGAUAUGGUGAAGGCAUAGUCUAGGGAGGGGCGAAAGUCACACAAACCGG | 0.00715 |
| GUGCCUUGCGCCGGGAAACCACGCAAGGGAUGGUGUCAAAUUCGGCGAAACCUAAGCGCCCGCCCGGGCGUAUGGCAACGCGGAGCCAAGCUUCGGCGCCUGCGCCGAUGUAGGUGUAGCGACUAGACGGCACCCACCUAAGGCUAACGAUAUGGUGAAGGCAUAGUCGAGGGAGCGGCGAAAGUCACACAAACCGG | 0.0247 |
| GUGCCUUGCGCCGGGAAACCACGCAAGGGAUGGUGUCAAAUUCGGCGAAACCUAAGCGCCCGCCCGGGCGUAUGGCAACGCGGAGCCAAGCUUCGGCGCCUGCGCCGAUGUAGGUGUAGCGACUAGACGGCACCCACCUAAGGCUAACGAUAUGGUGAAGGCAUAGUCGAGGGAGGGGCGAAAGUCACACAAACCGG | 0.00638 |
| GUGCCUUGCGCCGGGAAACCACGCAAGGGAUGGUGUCAAAUUCGGCGAAACCUAAGCGCCCGCCCGGGCGUAUGGCAACGCGGAGCCAAGCUUCGGCGCCUGCGCCGAUGUAGGUGUAGCGACUAGACGGCACCCACCUAAGGCUAACGAUAUGGUGAAGGCAUAGUCGAGGGAGAGGCGAAAGUCACACAAACCGG | 0.0207 |
| GUGCCUUGCGCCGGGAAACCACGCAAGGGAUGGUGUCAAAUUCGGCGAAACCUAAGCGCCCGCCCGGGCGUAUGGCAACGCGGAGCCAAGCUUCGGCGCCUGCGCCGAUGUAGGUGUAGCGACUAGACGGCACCCACCUAAGGCUAACGGUAUGGUGAAGGCAUAGUCCAGGGAGCGGCGAAAGUCACACAAACCGG | 0.00903 |
| GUGCCUUGCGCCGGGAAACCACGCAAGGGAUGGUGUCAAAUUCGGCGAAACCUAAGCGCCCGCCCGGGCGUAUGGCAACGCGGAGCCAAGCUUCGGCGCCUGCGCCGAUGUAGGUGUAGCGACUAGACGGCACCCACCUAAGGCUAACGGUAUGGUGAAGGCAUAGUCCAGGGAGGGGCGAAAGUCACACAAACCGG | 0.00406 |
| GUGCCUUGCGCCGGGAAACCACGCAAGGGAUGGUGUCAAAUUCGGCGAAACCUAAGCGCCCGCCCGGGCGUAUGGCAACGCGGAGCCAAGCUUCGGCGCCUGCGCCGAUGUAGGUGUAGCGACUAGACGGCACCCACCUAAGGCUAACGGUAUGGUGAAGGCAUAGUCCAGGGAGAGGCGAAAGUCACACAAACCGG | 0.0058 |
| GUGCCUUGCGCCGGGAAACCACGCAAGGGAUGGUGUCAAAUUCGGCGAAACCUAAGCGCCCGCCCGGGCGUAUGGCAACGCGGAGCCAAGCUUCGGCGCCUGCGCCGAUGUAGGUGUAGCGACUAGACGGCACCCACCUAAGGCUAACGGUAUGGUGAAGGCAUAGUCCAGGGAGUGGCGAAAGUCACACAAACCGG | 0.0103 |
| GUGCCUUGCGCCGGGAAACCACGCAAGGGAUGGUGUCAAAUUCGGCGAAACCUAAGCGCCCGCCCGGGCGUAUGGCAACGCGGAGCCAAGCUUCGGCGCCUGCGCCGAUGUAGGUGUAGCGACUAGACGGCACCCACCUAAGGCUAACGUUAUGGUGAAGGCAUAGUCCAGGGAGUGGCGAAAGUCACACAAACCGG | 0.0337 |
| GUGCCUUGCGCCGGGAAACCACGCAAGGGAUGGUGUCAAAUUCGGCGAAACCUAAGCGCCCGCCCGGGCGUAUGGCAACGCGGAGCCAAGCUUCGGCGCCUGCGCCGAUGUAGGUGUAGCGACUAGACGGCACCCACCUAAGGCUAACGUUAUGGUGAAGGCAUAGUCAAGGGAGUGGCGAAAGUCACACAAACCGG | 0.0102 |
